Entries after “also recorded” stand apart in the source; their conditions may differ.
Legend:
[1] = test system: gelatin; assay: Gelatin hydrolysis by cathepsin K mutant proteins; type: biochemical
[2] = Mobility shift assay of complex formation of proteases with CSA; type: binding
Method: The gel was run at about 25° C. 55 V, 250 mA for 30 min, then dried and developed the radio signal on a film.

[3] = test system: type I collagen; assay: Type I collagen hydrolysis by cathepsin K mutant proteins; type: biochemical, bovine; conditions: 800 nM protein, 0.4 mg/ml collagen, 0.15% CSA, 8 h at 28 C, pH 5.5
Method: (§1) The mutant proteins were generated to characterize cluster 1:K77A, R79A (mutant 1), K103, K106A, R108A, R111A, (mutant 2), K77A, R79A, K103, K106A, R108A,R111A (mutant 3), K77A, R79A, K103, K106A, R108A,R111A, K122A, R127A (mutant 4). Mutant proteins were expressed in Pichia pastoris and the activity of the protein was determined towards two synthetic peptide substrates, gelatin and type I native collagen. […] The cleavage products were separated by SDS polyacrylamide electrophoresis using 4-20% Tris Glycine gels.

[4] = Activity of cathepsin K mutant proteins towards synthetic peptide substrates; type: biochemical; conditions: Example 17 mutants
Method: as §1

B1: Y212C: pycnodysostosis-causing cathepsin K mutant (protein, UniProt P43235 115-329, looked up, variant Y212C)
Cathepsin K: APDSVDYRKKGYVTPVKNQGQCGSCWAFSSVGALEGQLKKKTGKLLNLSPQNLVDCVSENDGCGGGYMTNAFQYVQKNRGIDSEDAYPYVGQEESCMCNPTGKAAKCRGYREIPEGNEKALKRAVARVGPVSVAIDASLTSFQFYSKGVYYDESCNSDNLNHAVLAVGYGIQKGNKHWIIKNSWGENWGNKGYILMARNKNNACGIANLASFPKM
Question: Which results are given for B1?
Answer: gelatin hydrolysis by the protease ([1]; 1 nM Y212C, 0.15% CSA, 37 C for 8 h): exhibited gelatinase activity; complex formation with CSA ([2]; 0.2 μg/ml and 1000 μg/ml CSA): unable to form a complex with CSA

B2: mutant 5: cathepsin K mutant K9E (protein, UniProt P43235 115-329, looked up, variant K9E)
Cathepsin K: APDSVDYREKGYVTPVKNQGQCGSCWAFSSVGALEGQLKKKTGKLLNLSPQNLVDCVSENDGCGGGYMTNAFQYVQKNRGIDSEDAYPYVGQEESCMYNPTGKAAKCRGYREIPEGNEKALKRAVARVGPVSVAIDASLTSFQFYSKGVYYDESCNSDNLNHAVLAVGYGIQKGNKHWIIKNSWGENWGNKGYILMARNKNNACGIANLASFPKM
Question: With B2 as the molecule, how does the “activity towards gelatin compared with wild type” value ([1]; Example 17 mutants) read?
Answer: fully active

Question: What about the “complex formation with CSA” value ([2]; Example 17 mutants, gel-mobility assay) of the same molecule?
Answer: still revealed complex formation

Question: And the “degradation of type I collagen by the protease” value (from here on “degradation of type I collagen”) [3]?
Answer: strongly inhibited; also recorded: significantly reduced

Question: What about the “activity towards synthetic peptide substrates compared with wild type” value [4] of the same molecule?
Answer: fully active

B3: mutant 1: cathepsin K mutant K77A, R79A (protein, UniProt P43235 115-329, looked up, variant K77A R79A)
Cathepsin K: APDSVDYRKKGYVTPVKNQGQCGSCWAFSSVGALEGQLKKKTGKLLNLSPQNLVDCVSENDGCGGGYMTNAFQYVQANAGIDSEDAYPYVGQEESCMYNPTGKAAKCRGYREIPEGNEKALKRAVARVGPVSVAIDASLTSFQFYSKGVYYDESCNSDNLNHAVLAVGYGIQKGNKHWIIKNSWGENWGNKGYILMARNKNNACGIANLASFPKM
Question: Which “degradation of type I collagen” value [3] does the source give for B3 here?
Answer: complete degradation of type I collagen

Question: And the “degradation of type I collagen” value ([3]; listed as Mutant 1)?
Answer: did not reveal an inhibition

B4: Cat S: human cathepsin S, closely related cysteine protease (protein, UniProt P25774 115-331, looked up)
Cathepsin S: LPDSVDWREKGCVTEVKYQGSCGACWAFSAVGALEAQLKLKTGKLVSLSAQNLVDCSTEKYGNKGCNGGFMTTAFQYIIDNKGIDSDASYPYKAMDQKCQYDSKYRAATCSKYTELPYGREDVLKEAVANKGPVSVGVDARHPSFFLYRSGVYYEPSCTQNVNHGVLVVGYGDLNGKEYWLVKNSWGHNFGEEGYIRMARNKGNHCGIASFPSYPEI
Question: Which “complex formation with CSA” value ([2]; 50 ng [125I]DCG-04 labeled protease, 0.1% CSA) does the source give for B4 here?
Answer: Only cathepsin K formed a stable complex

Reference: patent publication US7799326B2, “Methods and compositions for cathespin k complex-mediated disorders” (Mount Sinai School of Medicine, priority 2001, dated 2010)
